31 sequences from the supplement of paper PMC9170038 can be followed below.

For series [1], the system named is MS2 coat protein. The experiment in a line: apparent KD of MS2 coat protein, switch ON state; designed switch direction (-1 OFF switch, 1 ON switch): -1; higher = weaker reporter binding. The conditions noted are these: FMN input: 0 or 200 uM; Eterna round: R93 (includes R88 designs). An outline of the steps:
(§1)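 With or without constant ligand, designed RNA switches in 100 mM Tris-HCl pH 7.5, 80 mM KCl and 4 mM MgCl2 were titrated with SNAP-549-labelled MS2 coat protein. Concentrations went up in twofold steps from 0.7 or 1.5 nM to 3 µM. The switches had been transcribed on-chip from Illumina sequencing clusters, and apparent KD is the per-design median of normalised cluster binding-curve fits.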

In series [2] the test system is MS2 coat protein. The experiment in a line: apparent KD of MS2 coat protein, switch OFF state (with FMN for OFF switches, without FMN for ON switches); designed switch direction (-1 OFF switch, 1 ON switch): -1; higher = weaker reporter binding. The conditions noted are these: FMN input: 0 or 200 uM; Eterna round: R93 (includes R88 designs). An outline of the steps:
as §1

On to “AAGGUAUGAGGAUAUACAUAGAUACAGACACAUGUUCAAGUACAUGAGGAUCACCCAUGUAGAAGGCAUAUAUA [AJ 14]”, for which the “apparent KD of MS2 coat protein” value with MS2 coat protein [1] amounted to 0.0242 µM; with MS2 coat protein [2], 0.033 µM.

As for “AAGUAUCGAGGAUAUACAUAGAUACAGAUUCAUGUAGAACUACAUGAGGAUCACCCAUGUAGAAGGCGAUAAUA [AJ 33]”, the “apparent KD of MS2 coat protein” value in the series with MS2 coat protein [1] stood at 0.0318 µM; in the series on MS2 coat protein [2], 0.0793 µM.

In the case of “AAUAAACAUGAGGAUCACCCAUGUAAGGAUAUGCGAACAAUAAGAAGACAAUAAUAAAGCAGAAGGUACAAGAG [Ex1 sub 1]”, the “apparent KD of MS2 coat protein” value in the series on MS2 coat protein [1] was found to be 0.027 µM; in the series on MS2 coat protein [2], 0.05 µM.

Turning to “AAUAAACAUGAGGAUCACCCAUGUCAGGAUAUGCACAAACAAACAAACAAACAAGCUAGCAGAAGGGACACUAC [Amethyst 87]”, the “apparent KD of MS2 coat protein” value in the series with MS2 coat protein [1] was determined as 0.0231 µM; with MS2 coat protein [2], 0.031 µM.

Turning to “AAUAACAGAGGAUAUACUAAAGAAAUGAAAAGAAAUAAAGAACAUGAGGAUCACCCAUGUAGAAGGCUGAAUAA [Sheneh]”, the “apparent KD of MS2 coat protein” value in the series on MS2 coat protein [1] worked out at 0.0169 µM; in the series on MS2 coat protein [2] it was 0.0215 µM.

As to “AAUAAGUCAGGAUAUACUAUGUCAGGAGAGAGACUGACUAUGUAGAAGGGACAUGAGGAUCACCCAUGUAAUAA [JR_Exclusion4_Sub5]”, the “apparent KD of MS2 coat protein” value with MS2 coat protein [1] was found to be 0.0474 µM; in the series with MS2 coat protein [2] it was 0.0361 µM.

As to “AAUAAGUGAGGAUAUACGAAAUAAAUAAAUAAAUAAAUAAAGUAGAAGGCACAUGAGGAUCACCCAUGUAAUAA [My Mind Is Going Dave]”, the “apparent KD of MS2 coat protein” value in the series on MS2 coat protein [1] came out at 0.0344 µM; with MS2 coat protein [2], 0.0297 µM.

With “AAUAAGUGAGGAUAUGCAAAUAAUAAAUAAAAUAAAAUAAAGCAGAAGGCACAUGAGGAUCACCCAUGUAAAUA [JR_Exc004_Sub001]”, the “apparent KD of MS2 coat protein” value in the series with MS2 coat protein [1] turned out to be 0.034 µM; in the series with MS2 coat protein [2] it was 0.0295 µM.

“AAUAAGUGAGGAUAUGGAAAUAAUAAAUAAAAUACCCUAAACCAGAAGGCACAUGAGGAUCACCCAUGUAAAUA [JR_Exc004_Sub003]”: the figures for the “apparent KD of MS2 coat protein” value in the series with MS2 coat protein [1] and with MS2 coat protein [2] were 0.0341 µM and 0.028 µM, respectively.

“AAUGCGGCAGGAUAUACAUGAGGAUCACCCAUGUAGAUCAGAUAUAUGGGAAAGCCAUGUAGAAGGGCCGCAAA [Ex 3May 61]”: the results for the “apparent KD of MS2 coat protein” value in the series on MS2 coat protein [1] and in the series on MS2 coat protein [2] were 0.0946 µM and 0.0248 µM, respectively.

With “AAUUCACAUGAGGAUCACCCAUGUAAGGAUAUCGAAAUAAAACUAAUCAAAAAACAAACGAGAAGGUACAAAAA [Exclusion 1 design 7]”, the figures for the “apparent KD of MS2 coat protein” value in the series with MS2 coat protein [1] and in the series on MS2 coat protein [2] were 0.0236 µM and 0.0263 µM, respectively.

Take “ACCAGACAUGAGGAUCACCCAUGUCAGGAUAUCUAGAAAACCUCAUGUAAAAAAAUCUAGAGAAGGGAUAUGGA [Design 94: Pseudoknot D]”: the figures for the “apparent KD of MS2 coat protein” value in the series with MS2 coat protein [1] and with MS2 coat protein [2] were 0.0406 µM and 0.0547 µM, respectively.

Turning to “ACCAGUACAGGAUAUACAUGAGGAUCACCCAUGUGAGAAUUAAGUGGCGUACCACAAAGUAGAAGGGUACUGGA [Mat - Exclusion 3 - JL mod - D11]”, the “apparent KD of MS2 coat protein” value was 0.0433 µM in the series with MS2 coat protein [1] and 0.273 µM with MS2 coat protein [2].

Turning to “ACCCUGCUAGGAUAUACAGCAGGGAUUCGAAAACCCACGAAACAUGAGGAUCACCCAUGUAGAAGGAGUAGGGA [Bimaat]”, the “apparent KD of MS2 coat protein” value with MS2 coat protein [1] came out at 0.0175 µM; in the series on MS2 coat protein [2] it was 0.016 µM.

As for “ACCGAACAUGAGGAUCACCCAUGUGAGGAUAUAGACGCAAAUUAAACGCGUAACAAAACUAGAAGGCACUGGGC [Veais]”, the results for the “apparent KD of MS2 coat protein” value with MS2 coat protein [1] and with MS2 coat protein [2] were 0.0276 µM and 0.0153 µM, respectively.

On to “ACUUAGACAGGAUAUACGUGAGUGGAAAAAGUGUAUCCACUACAUGAGGAUCACCCAUGUAGAAGGGUCUAAGA [Ex2 Design 182: Random 7]”, for which the “apparent KD of MS2 coat protein” value was determined as 0.0186 µM in the series on MS2 coat protein [1] and 0.0197 µM in the series on MS2 coat protein [2].

Take “AGAAAACAUGAGGAUCACCCAUGUCAGGAUAUCUAAAAGAAAAGAAAAGAAAGAAGAAAGAGAAGGGACAAGAA [Sekhemib-Perenmaat]”: the figures for the “apparent KD of MS2 coat protein” value in the series with MS2 coat protein [1] and with MS2 coat protein [2] were 0.0221 µM and 0.0255 µM, respectively.

Turning to “AGAAAGGCAGGAUAUACAUGAGGAUCACCCAUGUUAAGAGUGACGGAAACGUCACGAAGUAGAAGGGCCAAGAA [The song I sing]”, the figures for the “apparent KD of MS2 coat protein” value in the series on MS2 coat protein [1] and with MS2 coat protein [2] were 0.0204 µM and 0.0173 µM, respectively.

Take “AGAGACAGAGGAUAUACAUGAGGAUCACCCAUGUAAGAGAAAGAAAAGGGAAAGAAAAGUAGAAGGCUGAGAGA [Ruby 67]”: the “apparent KD of MS2 coat protein” value with MS2 coat protein [1] was 0.0242 µM; in the series with MS2 coat protein [2], 0.0287 µM.

In the case of “AGCAAACAUGAGGAUCACCCAUGUCAGGAUAUGAACGAAAUAAAAUAAAAAUAAAAGUUCAGAAGGGACGAGCA [Mat - Exclusion 1 - Eli mod - D24]”, the “apparent KD of MS2 coat protein” value with MS2 coat protein [1] turned out to be 0.0323 µM; in the series with MS2 coat protein [2], 0.0435 µM.

“AGCAAGUCAGGAUAUGCGAAGUCAGGACACACACUGACGAAGCAGAAGGGACAUGAGGAUCACCCAUGUAAGCA [JR_Exclusion4_Sub6]”: the “apparent KD of MS2 coat protein” value was 0.0425 µM in the series with MS2 coat protein [1] and 0.0393 µM with MS2 coat protein [2].

“AGCAGGUGAGGAUAUCGAUUAAGAUUAACAUUAUUAUUAAACGAGAAGGCACAUGAGGAUCACCCAUGUAAGGA [Exclusion 4Col]”: the “apparent KD of MS2 coat protein” value with MS2 coat protein [1] worked out at 0.0434 µM; with MS2 coat protein [2] it was 0.0518 µM.

On to “AGCUAGUCAGGAUAUACGAACAUGUCAAAAGACGUGAAGGAACAUGAGGAUCACCCAUGUAGAAGGGACUAGCA [Diamond 19]”, for which the “apparent KD of MS2 coat protein” value was 0.0193 µM in the series with MS2 coat protein [1] and 0.0165 µM with MS2 coat protein [2].

With “AGCUAGUCAGGAUAUACGAACAUGUCAAAAGACGUGAAGGGACAUGAGGAUCACCCAUGUAGAAGGGACUAGCC [salish99-Ex2-17]”, the “apparent KD of MS2 coat protein” value was found to be 0.0332 µM in the series with MS2 coat protein [1] and 0.145 µM in the series on MS2 coat protein [2].

Regarding “AGCUAGUCAGGAUAUACGAACAUGUCGAGAGACGUGAAGGGACAUGAGGAUCACCCAUGUAGAAGGGACUAGCA [Mat - Exclusion 2 - JL mod - D2]”, the “apparent KD of MS2 coat protein” value with MS2 coat protein [1] is 0.0355 µM; in the series on MS2 coat protein [2], 0.17 µM.

As to “AGCUAGUCAGGAUAUACGAACAUGUCGCCAGAUGUGAAGGGACAUGAGGAUCACCCAUGUAGAAGGGACUAGCA [salish99-Ex2-23]”, the “apparent KD of MS2 coat protein” value in the series on MS2 coat protein [1] is 0.254 µM; in the series on MS2 coat protein [2], 0.198 µM.

With “AGCUAGUCAGGAUAUACGAACAUGUCGGAAGACGUGAAGGGACAUGAGGAUCACCCAUGUAGAAGGGACUAGCA [Mat - Exclusion 2 - JL mod - D3]”, the results for the “apparent KD of MS2 coat protein” value in the series with MS2 coat protein [1] and with MS2 coat protein [2] were 0.0331 µM and 0.136 µM, respectively.

For the sequence “AGCUAGUCAGGAUAUACGAACAUGUCGGUGGACGUGAAGGGACAUGAGGAUCACCCAUGUAGAAGGGACUAGCA [salish99-Ex2-21]”, the “apparent KD of MS2 coat protein” value in the series with MS2 coat protein [1] worked out at 0.0413 µM; in the series with MS2 coat protein [2], 0.0915 µM.

“AGCUAGUCAGGAUAUACGAGCAUGUCAAAAGACGUGAAGGGACAUGAGGAUCACCCAUGUAGAAGGGACUAGCA [Diamond 22]”: the “apparent KD of MS2 coat protein” value came to 0.0403 µM with MS2 coat protein [1] and 0.122 µM with MS2 coat protein [2].

In the case of “AGCUAGUCAGGAUAUGCAUGAAAAAAAAAAAAAAAAAAAAAACAUGAGGAUCACCCAUGUAGAAGGGACUAGCA [Starry Exclusion 2 (jandersonlee round 1 mod)]”, the “apparent KD of MS2 coat protein” value in the series on MS2 coat protein [1] was 0.126 µM; with MS2 coat protein [2], 0.212 µM.

For the sequence “AGCUAGUGAGGAUAUACGAACAAGUAAAAGGACUGUAAGGGACAUGAGGAUCACCCAUGUAGAAGGCACUAGCA [Diamond 60]”, the figures for the “apparent KD of MS2 coat protein” value with MS2 coat protein [1] and in the series on MS2 coat protein [2] were 0.0296 µM and 0.0927 µM, respectively.
